Laboratory results: patent US12226546 (University of California, dated 2025)
One block for each binder: values may come before it.

Experiments:
[1] = biological target: T1, poly(L-methionine sulfoxide-stat-L-alanine)155-block-poly(L-glutamate-Na)90, (M^OA)155E90 (not fully specified; L-methionine sulfoxide (M^O) residues in the statistical M^O/A segment (ca. 88 mol % M^O, 12 mol % Ala)); assay: mixing of equal volumes of 5.0 wt % solutions in 1xPBS; polyion complex hydrogel formation
T1 chain: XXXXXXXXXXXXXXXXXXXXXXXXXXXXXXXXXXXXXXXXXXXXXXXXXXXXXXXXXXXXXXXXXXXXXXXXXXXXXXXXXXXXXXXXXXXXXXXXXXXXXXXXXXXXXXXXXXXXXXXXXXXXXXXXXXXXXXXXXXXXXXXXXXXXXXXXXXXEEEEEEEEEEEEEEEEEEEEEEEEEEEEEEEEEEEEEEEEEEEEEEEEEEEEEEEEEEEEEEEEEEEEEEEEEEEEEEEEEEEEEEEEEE

[2] = biological target: T1, poly(L-methionine …); assay: mixing of length-mismatched copolypeptides at E to K stoichiometry; hydrogel formation
[3] = biological target: T2, poly(L-methionine sulfoxide-stat-L-alanine)155-block-poly(L-glutamate-Na)30, (M^OA)155E30 (not fully specified; L-methionine sulfoxide (M^O) residues in the statistical M^O/A segment (ca. 88 mol % M^O, 12 mol % Ala)); assay: mixing of equal volumes of 5.0 wt % solutions in 1xPBS; polyion complex hydrogel formation
T2 chain: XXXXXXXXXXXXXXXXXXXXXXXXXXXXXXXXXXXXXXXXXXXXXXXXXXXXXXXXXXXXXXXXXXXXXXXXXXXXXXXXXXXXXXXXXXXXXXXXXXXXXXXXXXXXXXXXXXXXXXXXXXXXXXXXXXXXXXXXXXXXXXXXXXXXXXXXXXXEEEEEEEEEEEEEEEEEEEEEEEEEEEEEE

[4] = biological target: T3, FITC labeled (M^OA)155E60 (not fully specified; L-methionine sulfoxide (M^O) residues in the statistical M^O/A segment; fluorescein isothiocyanate (FITC) conjugated onto the N-terminal amine); assay: laser scanning confocal microscopy of fluorescently labeled hydrogel, 3.0 wt % in PBS
T3 construct: Fluorescently labeled form of (M^OA)155E60 used for confocal microscopy; also called E labeled (FITC)
T3 chain: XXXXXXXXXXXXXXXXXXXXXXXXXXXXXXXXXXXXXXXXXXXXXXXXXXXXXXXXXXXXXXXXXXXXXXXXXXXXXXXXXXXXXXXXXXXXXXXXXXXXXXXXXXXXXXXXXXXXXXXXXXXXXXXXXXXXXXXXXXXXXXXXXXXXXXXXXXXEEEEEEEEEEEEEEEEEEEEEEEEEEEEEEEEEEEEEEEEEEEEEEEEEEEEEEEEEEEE
Description: Laser scanning confocal microscopy (LSCM) was then used to visualize the labeled chains and the hydrogel network (FIG. 3A-3B).
Example 8—Laser Scanning Confocal Microscopy (LSCM) of Fluorescently Labeled Hydrogels LSCM images of hydrogels (3.0 wt % in PBS) were taken on a Leica TCS-SP1 MP-Inverted Confocal and Multiphoton Microscope equipped with an argon laser (476 and 488 nm blue lines), a diode (DPSS) laser (561 nm yellow-green line), and a helium-neon laser (633 nm far red line). Fluorescently labeled hydrogel samples were visualized on glass slides with a spacer between the slide and the cover slip (double-sided tape) allowing the self-assembled structures to be minimally disturbed during focusing. A Z-slice thickness of 0.78 µm was used. Sample imaging was performed at the Advanced Light Microscopy/Spectroscopy Center (ALMS) at the UCLA California NanoSystems Institute (CNSI).

[5] = biological target: T4, poly(L-methionine sulfoxide0.88-stat-L-alanine0.12)155-block-poly(L-glutamate)60, (M^OA)155E60 (not fully specified; L-methionine sulfoxide (M^O) residues in the statistical M^O/A segment (ca. 88 mol % M^O, 12 mol % Ala)); assay: mixing of equal volumes of 5.0 wt % solutions in 1xPBS; polyion complex hydrogel formation
T4 chain: T3 chain

[6] = biological target: T5, poly(L-methionine sulfoxide-stat-L-alanine)155-block-poly(L-glutamate-Na)120, (M^OA)155E120 (not fully specified; L-methionine sulfoxide (M^O) residues in the statistical M^O/A segment (ca. 88 mol % M^O, 12 mol % Ala)); assay: as above
T5 chain: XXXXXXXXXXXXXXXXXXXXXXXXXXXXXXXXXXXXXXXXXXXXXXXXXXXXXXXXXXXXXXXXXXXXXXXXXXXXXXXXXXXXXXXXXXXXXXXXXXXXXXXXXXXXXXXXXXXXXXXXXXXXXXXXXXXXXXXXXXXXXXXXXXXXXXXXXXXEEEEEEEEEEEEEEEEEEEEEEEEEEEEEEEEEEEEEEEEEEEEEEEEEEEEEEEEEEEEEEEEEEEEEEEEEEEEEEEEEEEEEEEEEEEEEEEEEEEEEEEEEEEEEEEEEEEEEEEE

B1: poly(L-methionine sulfoxide-stat-L-alanine)155-block-poly(L-lysine-HCl)90, (M^OA)155K90 (other)
chain: XXXXXXXXXXXXXXXXXXXXXXXXXXXXXXXXXXXXXXXXXXXXXXXXXXXXXXXXXXXXXXXXXXXXXXXXXXXXXXXXXXXXXXXXXXXXXXXXXXXXXXXXXXXXXXXXXXXXXXXXXXXXXXXXXXXXXXXXXXXXXXXXXXXXXXXXXXXKKKKKKKKKKKKKKKKKKKKKKKKKKKKKKKKKKKKKKKKKKKKKKKKKKKKKKKKKKKKKKKKKKKKKKKKKKKKKKKKKKKKKKKKKK
modifications: not fully specified; X: randomised place (mixture); also: X1-155: Met(O) or Ala, statistical (ca. 88 mol % Met(O)), HCl salt
binding result [1]: binds

B2: poly(L-methionine sulfoxide-stat-L-alanine)155-block-poly(L-lysine-HCl)30, (M^OA)155K30 (other)
chain: XXXXXXXXXXXXXXXXXXXXXXXXXXXXXXXXXXXXXXXXXXXXXXXXXXXXXXXXXXXXXXXXXXXXXXXXXXXXXXXXXXXXXXXXXXXXXXXXXXXXXXXXXXXXXXXXXXXXXXXXXXXXXXXXXXXXXXXXXXXXXXXXXXXXXXXXXXXKKKKKKKKKKKKKKKKKKKKKKKKKKKKKK
modifications: not fully specified; L-methionine sulfoxide (M^O) residues in the statistical M^O/A segment (ca. 88 mol % M^O, 12 mol % Ala)
binding result [2]: binds
binding result [3]: binds

The remaining lines, values ahead:

binding result [4]: binds
B3: TRITC labeled (M^OA)155K60 (other)
chain: XXXXXXXXXXXXXXXXXXXXXXXXXXXXXXXXXXXXXXXXXXXXXXXXXXXXXXXXXXXXXXXXXXXXXXXXXXXXXXXXXXXXXXXXXXXXXXXXXXXXXXXXXXXXXXXXXXXXXXXXXXXXXXXXXXXXXXXXXXXXXXXXXXXXXXXXXXXKKKKKKKKKKKKKKKKKKKKKKKKKKKKKKKKKKKKKKKKKKKKKKKKKKKKKKKKKKKK
modifications: X: randomised place (mixture); also: positions 1-155 statistical Met(O)/Ala copolymer, polydisperse, nominal block lengths, TRITC on an unspecified Lys side chain, about 1 probe per 5 chains, Lys as HCl salt
notes: Fluorescently labeled form of (M^OA)155K60 used for confocal microscopy; also called K labeled (TRITC)

binding result [5]: binds
B4: poly(L-methionine sulfoxide0.88-stat-L-alanine0.12)155-block-poly(L-lysine)60, (M^OA)155K60 (other)
chain: B3 chain
modifications: not fully specified; X: randomised place (mixture); also: X1-155: Met(O) or Ala, statistical (ca. 88 mol % Met(O), 12 mol % Ala), HCl salt

binding result [6]: binds
B5: poly(L-methionine sulfoxide-stat-L-alanine)155-block-poly(L-lysine-HCl)120, (M^OA)155K120 (other)
chain: XXXXXXXXXXXXXXXXXXXXXXXXXXXXXXXXXXXXXXXXXXXXXXXXXXXXXXXXXXXXXXXXXXXXXXXXXXXXXXXXXXXXXXXXXXXXXXXXXXXXXXXXXXXXXXXXXXXXXXXXXXXXXXXXXXXXXXXXXXXXXXXXXXXXXXXXXXXKKKKKKKKKKKKKKKKKKKKKKKKKKKKKKKKKKKKKKKKKKKKKKKKKKKKKKKKKKKKKKKKKKKKKKKKKKKKKKKKKKKKKKKKKKKKKKKKKKKKKKKKKKKKKKKKKKKKKKKK
modifications: X: randomised place (mixture); also: X1-155: Met(O) or Ala, statistical (ca. 88 mol % Met(O)), polydisperse, lengths nominal, HCl salt
